Reference: patent US20260258376

Key:
Assay in all cases: cell_activity
[1] = test system: ZF-off targeting TAR1649 (second row, 10.70%) (synthetic); details: HLA-DR+ 10.70%; binding inferred from silencing
[2] = test system: ZF-off targeting TAR1607 (table row SEQ 1538) (synthetic); details: HLA-DR+ 6.46%; binding inferred from silencing
[3] = test system: ZF-off targeting TAR1616 (table row SEQ 1557) (synthetic); details: HLA-DR+ 5.76%; binding inferred from silencing
[4] = test system: ZF-off targeting TAR1650 (table row SEQ 1549) (synthetic); details: HLA-DR+ 13.65%; binding inferred from silencing
[5] = test system: ZF-off targeting TAR1654 (table row SEQ 1572) (synthetic); details: HLA-DR+ in primary human T cells, 2.64%; binding inferred from silencing
[6] = test system: ZF-off targeting TAR1615 (table row SEQ 1601) (synthetic); details: HLA-DR+ 4.50%; binding inferred from silencing
[7] = test system: ZF-off targeting TAR1648 (third row, 4.51%) (synthetic); details: HLA-DR+ 4.51%; binding inferred from silencing
[8] = test system: ZF-off targeting TAR1604 (table row SEQ 1576) (synthetic); details: HLA-DR+ 12.84%; binding inferred from silencing
[9] = test system: ZF-off targeting TAR186 (table row SEQ 1553) (synthetic); details: HLA-DR+ 7.53%; binding inferred from silencing
[10] = test system: ZF-off targeting TAR1612 (table row SEQ 1599) (synthetic); details: HLA-DR+ 12.50%; binding inferred from silencing
[11] = test system: ZF-off targeting TAR1608 (table row SEQ 1608) (synthetic); details: HLA-DR+ 12.05%; binding inferred from silencing
[12] = test system: ZF-off targeting TAR1623 (table row SEQ 1605) (synthetic); details: HLA-DR+ 10.56%; binding inferred from silencing
[13] = test system: ZF-off targeting TAR1646 (table row SEQ 1547) (synthetic); details: HLA-DR+ 3.88%; binding inferred from silencing
[14] = test system: ZF-off targeting TAR1655 (table row SEQ 1563) (synthetic); details: HLA-DR+ 15.20%; binding inferred from silencing

ACAGAAAGTCTGTTGGGGG (double strand) [TAR1649]
activity (fraction of off-target control) [1]: 0.31

AGGGCACGAGGAGGGGCTG (double strand) [TAR1607]
activity (fraction of off-target control) [2]: 0.18

GAACAGATGGTGGGAAGAG (double strand) [TAR1616]
activity (fraction of off-target control) [3]: 0.16

GAATTTGGTGAAGACAGAA (double strand) [TAR1650]
activity (fraction of off-target control) [4]: 0.39

GACAGGTAGGACCCAGCAG (double strand) [TAR1654]
activity (fraction of off-target control) [5]: 0.08

GACGGGGGAACAGATGGTG (double strand) [TAR1615]
activity (fraction of off-target control) [6]: 0.13

GAGAGCCTCTGCTGGGGAC (double strand) [TAR1648]
activity (fraction of off-target control) [7]: 0.13

GAGGCATCTGGGCGGAGGG (double strand) [TAR1604]
activity (fraction of off-target control) [8]: 0.37

GAGGCTGTGTGCTTCTGAG (double strand) [TAR186]
activity (fraction of off-target control) [9]: 0.22

GCAGCTGGGGAGAGCTGGC (double strand) [TAR1612]
activity (fraction of off-target control) [10]: 0.36

GGAGCTGCTGCCTGGCTGG (double strand) [TAR1608]
activity (fraction of off-target control) [11]: 0.34

GGAGGGGGAGAAGTCAGAG (double strand) [TAR1623]
activity (fraction of off-target control) [12]: 0.3

GTGGTATCAAGGAGGAAGT (double strand) [TAR1646]
activity (fraction of off-target control) [13]: 0.11

TGGGTATGGAGTGGAGTCT (double strand) [TAR1655]
activity (fraction of off-target control) [14]: 0.43
